Experimental findings from patent publication US20200109196A1 (MOGAM INSTITUTE FOR BIOMEDICAL RESEARCH, published 2020) are described below.

T1: human CEACAM1 expressed on the cell surface (CEACAM1-Jurkat T cells); HEK293 cells transfected with human … (human, UniProt P13688 35-526)
T1 construct: whole, on cells; also called CCM1
T1 sequence (looked up): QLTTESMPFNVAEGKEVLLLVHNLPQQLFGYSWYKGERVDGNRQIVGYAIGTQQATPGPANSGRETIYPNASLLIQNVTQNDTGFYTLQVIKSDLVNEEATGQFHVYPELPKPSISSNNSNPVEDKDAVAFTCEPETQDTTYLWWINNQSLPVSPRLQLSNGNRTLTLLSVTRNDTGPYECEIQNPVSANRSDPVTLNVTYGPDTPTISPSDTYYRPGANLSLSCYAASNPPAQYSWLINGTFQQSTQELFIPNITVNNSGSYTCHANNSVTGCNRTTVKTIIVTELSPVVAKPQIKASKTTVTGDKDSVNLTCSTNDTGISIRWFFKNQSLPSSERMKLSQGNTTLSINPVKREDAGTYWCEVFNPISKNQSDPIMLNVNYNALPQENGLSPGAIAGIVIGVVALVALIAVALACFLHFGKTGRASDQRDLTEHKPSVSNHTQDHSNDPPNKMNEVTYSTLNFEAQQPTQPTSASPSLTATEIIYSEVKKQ

T2: CEACAM8 expressed on the surface of HEK293 cells (human, UniProt P31997 35-320)
T2 construct: whole, on cells
T2 sequence (looked up): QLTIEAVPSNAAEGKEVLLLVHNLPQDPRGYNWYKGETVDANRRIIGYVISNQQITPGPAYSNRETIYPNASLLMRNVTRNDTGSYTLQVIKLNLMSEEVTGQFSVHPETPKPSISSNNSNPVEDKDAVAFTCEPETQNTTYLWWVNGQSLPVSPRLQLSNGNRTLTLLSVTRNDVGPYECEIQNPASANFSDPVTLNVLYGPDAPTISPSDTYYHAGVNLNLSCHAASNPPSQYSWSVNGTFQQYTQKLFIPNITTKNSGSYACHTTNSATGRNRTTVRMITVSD

T3: recombinant human CEACAM-1/CD66a protein Bulk (R&D systems; Cat. No. 2244-CM) (human, UniProt P13688 35-428)
T3 construct: Same catalogue number as HCCM1, coated as a separate antigen ('bulk'); also called HCCM1 (bulk)
T3 sequence (looked up): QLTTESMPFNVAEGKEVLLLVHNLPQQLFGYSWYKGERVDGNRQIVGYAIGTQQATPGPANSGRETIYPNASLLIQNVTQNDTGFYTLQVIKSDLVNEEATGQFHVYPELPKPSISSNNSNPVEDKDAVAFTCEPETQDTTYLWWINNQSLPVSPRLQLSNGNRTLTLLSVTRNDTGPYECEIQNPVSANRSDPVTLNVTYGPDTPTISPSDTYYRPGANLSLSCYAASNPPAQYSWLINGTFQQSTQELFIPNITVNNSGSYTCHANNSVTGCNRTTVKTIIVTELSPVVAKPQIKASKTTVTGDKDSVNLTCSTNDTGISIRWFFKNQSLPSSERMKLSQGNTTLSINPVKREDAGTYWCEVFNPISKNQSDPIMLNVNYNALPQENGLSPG

B1: 4R9 (antibody, human IgG4 S228P, lambda, V domains shown)
VH: EVQLLESGGGLVQPGGSLRLSCAASGFTFSNYAMSWVRQAPGKGLEWVSVISHGGGSIYYADSVKGRLTISRDNSKNTLYLQMNSLRAEDTAVYYCARDPTKGYAPTFDYWGQGTLVTVSS
VL: QSVLTQPPSASGTPGQRVTISCSGSSSNIGNNYVSWYQQLPGTAPKLLIYADSRRPSGVPDRFSGSKSGTSASLAISGLRSEDEADYYCGAWDLSLNGYVFGGGTKLTVLG
notes: also called C25-derived clone 4R9
B2: 4R26 (antibody, human IgG4 S228P, lambda, V domains shown)
VH: B1 VH
VL: B1 VL with R54K, P56L, L94G, S95R
notes: also called C25-derived clone 4R26
B3: 4R9_H2-2 (antibody, human IgG4 S228P, lambda, V domains shown)
VH: B1 VH with T107L
VL: B1 VL
notes: also called C25-derived clone 4R9_H2-2
B4: 4R9_H4-n20 (antibody, human IgG4 S228P, lambda, V domains shown)
VH: B1 VH with T28N
VL: B1 VL
notes: also called C25-derived clone 4R9_H4-n20
B5: C19 (antibody, human IgG4 S228P, lambda, V domains shown)
VH: EVQLLESGGGLVQPGGSLRLSCAASGFTFSGYAMSWVRQAPGKGLEWVSGIYHDGGSTYYADSVKGRFTISRDNSKNTLYLQMNSLRAEDTAVYYCARVTVLCTTYGCSSYDGMDVWGQGTLVTVSS
VL: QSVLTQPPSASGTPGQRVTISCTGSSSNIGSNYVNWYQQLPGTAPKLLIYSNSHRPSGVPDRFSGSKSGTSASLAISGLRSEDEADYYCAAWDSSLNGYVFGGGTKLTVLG
B6: C15 (antibody, human IgG4 S228P, lambda, V domains shown)
VH: EVQLLESGGGLVQPGGSLRLSCAASGFTFSSYSMSWVRQAPGKGLEWVSSISPNGGNKYYADSVKGRFTISRDNSKNTLYLQMNSLGAEDTAVYYCAKDPYNIYQPLFDYWGQGTLVTVSS
VL: B1 VL with P8L, S35N, D52N, R54N, D83E, A91T, L94A, N97S, G98A
B7: C18 (antibody, human IgG4 S228P, lambda, V domains shown)
VH: EVQLLESGGGLVQPGGSLRLSCAASGFTFSNYDMSWVRQAPGKGLEWVSGISHSSGSKYYADSVKGRFTISRDNSKNTLYLQMNSLRAEDTAVYYCARDPLPCLIPKCSYYYAMDVWGQGTLVTVSS
VL: B1 VL with S11P, N31S, Y33A, S35T, R54H, A91S, L94D, G98A
B8: C17 (antibody, human IgG4 S228P, lambda, V domains shown)
VH: EVQLLESGGGLVQPGGSLRLSCAASGFTFSDYSMSWVRQAPGKGLEWVSVIYPDDGNTYYADSVKGRFTISRDNSKNTLYLQMNSLRAEDTAVYYCARGSIWWLSLIPSSYNAMDVWGQGTLVAVSS
VL: B1 VL with Y33A, S35N, D52N, R54H, L94A
B9: C22 (antibody, human IgG4 S228P, lambda, V domains shown)
VH: EVQLLESGGGLVQPGGSLRLSCAASGFTFSDYDMSWVRQAPGKGLEWVSMIYSGSSSKYYADSVKGRFTISRDNSKNTLYLQMNSLRAEDTAVYYCAKAPLPFYFRPKSYYYAMDVWGQGTLVTVSS
VL: B1 VL with N31S, Y33N, S35T, D52N, R54H, A91S, L94S, G98A

Where a chain is given by its changes, count along the chain named.

The target in the first experiment is T1, human CEACAM1 expressed on the cell …. Put plainly: flow cytometry on CEACAM1-Jurkat T cells; maximal MFI told of the 'other clones' as a group. The procedure:
(§1) The CEACAM1-Jurkat T cells prepared above were treated with Fc block solution and incubated for 15 minutes. […] Herein, it is noted that the cell numbers were adjusted to 1×10⁵. The cells incubated with the antibodies were repeatedly subjected to the washing procedure of resuspending the cells in a FACS buffer and centrifuging the solution at 1,500 rpm.
(§2) PE-conjugated goat anti-human F(ab)₂; (Sigma; Cat. No. P8047)) was diluted in the FACS buffer at a volume ratio of 1:200, and then added to the cells at 100 μl/well. Cells were resuspended well and incubated at 4° C. for 30 minutes in a dark condition.
(§3) The cells incubated with the fixation buffer were repeatedly subjected to the washing procedure of resuspending the cells in a FACS buffer, centrifuging the solution at 1,500 rpm, and discarding the supernatant. The washed cells were resuspended in 200 μl of a FACS buffer, and the mean fluorescence intensities (MFIs) of the PE-labeled cells were monitored by a FACS LSR-Fortessa. All FACS analyses were conducted using the FlowJo software.
B1 registered an MFI of 8000.
Same read-out and setting: the result for B2 reads 8000.
In the case of B3, the MFI came out at 8000.

Another experiment concerns the target T2, CEACAM8 expressed on the surface of …. Put plainly: flow cytometry on transfected HEK293 cells (GFP+ gate), PE goat anti-huIgG4 [b]. The protocol: HEK293 cells were added with 10 μg of each pEF1α-AcGFP-N1 vector (Clontech, Cat. No. 631973) as a control vector, CEACAM1, CEACAM3, CEACAM5, CEACAM6 and CEACAM8 plasmid vectors, followed by transfection under the condition of pulse voltage 1,100 V, pulse width 20 ms and pulse number 2. After 48 hours of transfection, GFP expression was confirmed by fluorescence microscopy. The cells were detached by treatment with 1 ml of TrypLE Express Solution (ThermoFisher Scientific; Cat. No. 12605010), resuspended in 9 ml of DMEM (Gibco, Cat. No. 11995-065) supplemented with 10% (v/v) FBS, and centrifuged at 1,200 rpm for 5 minutes, to remove the resulting supernatant.
After washing once with PBS, the cells were resuspended in a FACS buffer to obtain a concentration of 5×10⁵ cells/100 μl. Human Fc Block solution was added to the samples at 1 μl/sample, which were incubated at 4° C. for 10 minutes. The cells were treated with hulgG4 or one of the anti-CEACAM1 clones listed at 1 μg/5×10⁵ cells, which were incubated at 4° C. for 10 minutes. After washing with FACS buffer, the PE-labeled goat-anti-huIgG4 antibodies were diluted at a ratio of 1:200 in a FACS buffer, and added to the samples at 100 μl/sample, which were incubated at 4° C. for 30 minutes. The samples were filled with a FACS buffer up to 200 μl, and then centrifuged at 1,200 rpm for 5 minutes, to remove the resulting supernatant. The fixation buffer (300 μl) was added to resuspend the cells. The cells expressing GFP were selected in the FACS LSR-Fortessa device, and the expression of CEACAM members were evaluated respectively using the antibody specific to each CEACAM member (Table 3). Also, the binding of anti-CEACAM1 antibodies was evaluated by PE fluorescence channel and analyzed using the FlowJo software.
A general note: A flow cytometer gives signals particle by particle.
As to B1, the binding result is recorded as “no binding”.
On the same count and under the same terms, as for B2, the entry is “no binding”; as for B4, “no binding”; as for B3, “no binding”.

The target of the next experiment is T3, recombinant human CEACAM-1/CD66a …. Put plainly: ELISA, coated antigen, anti-human IgG Fab-HRP. A general note: An ELISA detects its analyte on a solid surface through an enzyme-linked reagent.
As to B5, the binding result is given as “binds”.
As to B6, the binding result is “binds”.
Consider B7, for which the binding result is “binds”.
Still for that read-out and setting: as for B8, the entry is “binds”; as for B9, “binds”.

In another experiment the target is T1, human CEACAM1 expressed on the cell …. Put plainly: flow cytometry on CEACAM1-Jurkat T cells, antibody at 0.2 µg/ml. The procedure: as §1, §2, §3
With B1, the “percent of maximal binding level” value came to 80%.
As for B2, the “percent of maximal binding level” value turned out to be 80%.
As to B3, the “percent of maximal binding level” value was 80%.
